Measured values from the DeepSol protein solubility set.

Assay: soluble on expression in E. coli; label from the status in PepcDB or PDB records

| Sequence | soluble on expression in E. coli |
| --- | --- |
| MGSDKIHHHHHHMLEMKATGKSKGQWMFYRNFDDTVDYLSDHTRILSYNPFCHKVEPLDRDEAYRWHFRVTDPQNNPFDVIFNIQQETEILVDLPDEVASMDPEEMSDEMIRQFTVGRKITWRPLAQDKTFTMPEKYLFEGQVTADMLIVPVQQEQTRVDFDLWVNVAFLLYPAFRIVPEKVVRTMVSTGMSLIMQTATNHMFQKISKEFGKIRKL | not soluble |
| MGSDKIHHHHHHMIWYLEKWRRRWILGRKPIRESVWQSAVDQLPFLHGLTQDEFRQLREWTSIFLHDKKINGVQGLVVTEAMRVMIAVQACLLILKLDPEYYDDWVEVIVYPGKFILDHAYTDETGIVHTRRMVASGESWQAGPVILSWEDVVHVHHESGYNVVIHEFAHKLDMLNGSANGYPPLHSDMDPRIWAVVFSRAYEIFCRQVERGEVTIMDPYAAEDPAEFFAVSSEVFFTRPYRIKQYFPEMYQQLARYYRQDPAARQECETDS | not soluble |
| MKRIPIKELIVEHPGKVLILDGGQGTELENRGININSPVWSAAPFTSESFWEPSSQERKVVEEMYRDFMIAGANILMTITYQANFQSISENTSIKTLAAYKRFLDKIVSFTREFIGEERYLIGSIGPWAAHVSCEYTGDYGPHPENIDYYGFFKPQLENFNQNRDIDLIGFETIPNFHELKAILSWDEDIISKPFYIGLSVDDNSLLRDGTTLEEISVHIKGLGNKINKNLLLMGVNCVSFNQSALILKMLHEHLPGMPLLVYPNSGEIYNPKEKTWHRPTNKLDDWETTVKKFVDNGARIIGGCCRTSPKDIAEIASAVDKYS | soluble |
| MASRRSNAKSRDKPDKYSVLLPTYNERENLPLIVWLLVKYFGESGYNYEIIVIDDGSPDGTLQIAEQLQKIYGADKILLRPRAEKLGLGTAYIHGIKHATGNFVIIMDADLSHHPKFIPQFIEKQKEGGYDLVSGTRYRGDGGVYGWDLRRKLISRGANFVTQVLLRPGASDLTGSFRLYKKEVLEKLVEQCVSKGYVFQMEMIVRARQLGYTIGEVPISFVDRVYGESKLGGNEIVSFLKGLLTLFATT | not soluble |
| KNTDLVAEDSICFPIDEHTYYASKSIFQFEENGHEYLSFLDAEYSQKINIYDIKNQKLIKTILLQKEGPNGMNVLSGCHPLNLNHFIITSWNGTFSLVNDKGEIEKKFDFWEKGVNFQEFDHISFSSYSYKPAIIKDSILYFSQSFLKHPRKKSDWNKIPMFAFANLNTGKTGWSELRYPLIFNKDEDFKNVKLYDPEICYTYTGKDVVISLGQYDSIMVSSDFKHKISYNAKSRYLAHAYPHLQDGQIDLFKNIQIQGKLPHYSHLMYDKYRKVFYRFALMPDDNIKPFSNNPHQSFSIIILNKDYEIIGETKFPGNTYTHHLCFVGKKGLYISENNENNPQFDENKLVFRCFTLQDRKK | soluble |
| MGSDKIHHHHHHMMSYVRMTLYHGTDRKSAEKIMESKEILPSQGDNHWLGDGIYFYEEEFHAFKWIWYKEKNRNRLLKNFAIIKAEVICEESRIFDLTKIEHKLLFDMMYKLINTTKLRLDKLRGDMCAEGVVINYMFKNKELGYNKRFDIVRALFPIPVKKYQKIENREKNKKYKERTHRLTFMPEIQVCVKNPSVIKKLEWYDLEKTIDKFLIYTEIYKEDLGI | not soluble |
| MNAPPAWAADILKKASSQALDLYNKGIGGNVYQGERIAGLGTMTKNALTGLEQAVGQYNNPALTQWFNAPTQSAHNLLGMAKGDWIGNNSKFNAALQSALSKTSDAINQSMAGAGRYGSGAHTGVLADELGALATNAAAQQYNQDIHNMMNANQMIDRSLYDQVNAANNYYQGQSNAQSNALKGGLIQDVNRQNALDAERQKWTEQDNQAWNQLERLLRVGTQAAGNYGTTSGKSTTMPSVTKDPLRDAQQVLGLMGGILGLCDVRAKENIVPVGEKNGYPLYVFNYKGDPQRYCGVLAQEVLRLKPEAVFVNAKTKLLHVDYNKIGLKMKKISEPKKRIATFFSALFARFPFLQKGYLLLEHHHHHH | soluble |
| MGSDKIHHHHHHMKFTDIEYFDKLSELESFSKTAIFFNVSQPTISFAIQRLENEMKKTLINRNQSHGEISLTEAGKVFEKHAKKILQEVVAAHEEIDRMNQPTIEFGLPQIIGNYYLPKLVKHFVGNPFFQNVATNEAGSNLLLGALKNRRLDLAIISSVEPVKIEGLETIEIDRKKYSIVVNKDNPLAKQKKVSFEDLADEKFVSLKEGNVHPIAFRKLEETYNVYPKIIYETPDINILKKMIAEKTGIGFIVEIAVEKQDNLATLELSNEKVPEFIISFVYKKDLQIPGIKRIVEELRNNSVFDQDR | not soluble |
| ENLMQVYQQARLSNPELRKSAADRDAAFEKINEARSPLLPQLGLGADYTYSNGYRDANGINSNATSASLQLTQSIFDMSKWRALTLQEKAAGIQDVTYQTDQQTLILNTATAYFNVLNAIDVLSYTQAQKEAIYRQLDQTTQRFNVGLVAITDVQNARAQYDTVLANELTARNNLDNAVEQLRQITGNYYPELAALNVENFKTDKPQPVNALLKEAEKRNLSLLQARLSQDLAREQIRQAQDGHLPTLDLTASTGISDTSYSGSKTRGAAGTQYDDSNMGQNKVGLSFSLPIYQGGMVNSQVKQAQYNFVGASEQLESAHRSVVQTVRSSFNNINASISSINAYKQAVVSAQSSLDAMEAGYSVGTRTIVDVLDATTTLYNAKQELANARYNYLINQLNIKSALGTLNEQDLLALNNALSKPVSTNPENVAPQTPEQNAIADGYAPDSPAPVVQQTSARTTTSNGHNPFRN | soluble |
| MGSDKIHHHHHHMETSAPRAGSQVVATTARHSAAYRADPLRVSSRDKLTEMAASSQGNFEGNFESLDLAEFAKKQPWWRKLFGQESGPSAEKYSVATQLFIGGVTGWCTGFIFQKVGKLAATAVGGGFFLLQLANHTGYIKVDWQRVEKDMKKAKEQLKIRKSNQIPTEVRSKAEEVVSFVKKNVLVTGGFFGGFLLGMAS | not soluble |
| MPSTLSEELVGKYLAAQYQVWIDTSVVTLQIGCQSAPLAALLQATGNRSAVYVTACNPASEVATSQENQSAMARLYERLACYSNHIYRGTGIDPSGEWPAEESLLALGIDLSIAKKIGDEFGQNAIVWIDSAAIPHLVLLC | not soluble |
| MEVVEAAAAQLETLKFNGTDFGVGEGPAAPSPGSAPVPGTQPPLQSFEGSPDAGQTVEVKPAGEQPLQPVLNAVAAGTPAPQPQPPAESPACGDCVTSPGAAEPARAPDSLETSDSDSDSDSETDSDSSSSSSSSSSSSSSSSSSCISLPPVLSDGDDDLQVEKENKNFPLKTKDELLLNELPSVEELTIILPEDIELKPLGMVSSIIEQLVIIESMTNLPPVNEETVIFKSDRQAAGKIFEIFGPVAHPFYVLRFNSSDHIESKGIKIKETMYFAPSMKDFTQYIFTEKLKQDKGSDASWKNDQEPPPEALDFSDDEKEKEAKQRKKSQIQGRKKLKSEFNEPGEDFTEVHQNWNAHSSASEHAKGYRNREFTRGFSRARYPRSCHGRPPPQHFYNSEHMVSQETSGFPSQRQNNPIMPQYPFPLPVFDMHNFPLRPPPPPPPPPVNMGWATPNMAAHPLLNLPYSLPPPPPPPPLPPPPSSGDSNSHFGPYY | soluble |
| MAATVVIVAWIANRPPASSHEPSPTPNTQLAEQPLIGLGGGVTVRELTQDTPFSLVALTGDLAGTSARVRAKRPDGDWGPWYQTEYETEPRDPAGTDGSVELGGLNPGPRSTDPVFVGTTTTVQVAVTRPIDAPITQPPAGRPPNDLLDSGLGYRPATKEQPFGQNISAILISPPQAPPGTQWTPPTAVTMAGQPPAIISRAEWGADESLRCETPEYDRGVRAAVVHHTAGSNDYSPLESAGIVKAIYTYHSKTLGWCDIAYNALVDKYGQVFEGSAGGLTKPVEGFHTGGFNRNTWGVAMIGNFDDVAPTPIQIRTVGRLLGWRLGMDDVDPRSMVDLQSAGSSYTTFPGGAIARLPAIFTHRDVGNTDCPGNAAYAVMDEIRDIAAHFNDPPEELIKALEGGAIYQRWQALGGMNSALGAPTSPEADAADGARYATFAKGAMYWSPVTDAQPITGAIYEAWASQSYERGPLGLPTSAEIQEPLQITQNFQHGTLNFERLTGNVTEVVDGITTPLATRPPSGPTVPPEHFTLPTHPIT | soluble |
| MANIDYMMDPGWKYLRQAQDEALKEQAARRFDNKTHAWVPDAAEGFVTAAVAVQEGDNLTFTMPDGTPKKLTRAEVQEINPAKFEKTEDMSNLTFLNEASVLHNLRQRYYSMMIYTYSGLFCVFINPYKMLPIYTDSVASMYVNKRRAEMPPHLFAVSDEAFRNMMSDKENQSMLITGESGAGKTENTKKVIAYFAMIGSGNKDQKSESSLENQVVQANPAIEAFGNGATTRNYNSSRYGKFIRIHFDRKGKLVGGDIEHYLLEKSRVIKQAPGERSYHIFYQIMTQKALRERYGLSDNIRDYKFVSQAEITVPGMNDTEEWQITDGAFNVMGFSEREKDDLYKLCSAIMHIGNSTFKQKPRDEQAEVDDMTSPTAACKLFGINTDQFLNALTRPRIKVGMEWVNKGQNVQQVDWAVGALSKAIYARMFNWLIKRVNKTLQANSDEMVYYIGVLDIAGFEIFDRNSFEQLWINFVNEKLQQFFNHHMFVLEQEEYQREGIEWTFIDFGLDLQSCIELIEKPLGIVSMLDEECIVPKASDMTYVDKLLTQHLGKHPNFQKAKPPKGKQAEAHFSIMHYAGTVRYNAEQWLDKNKDPLNDSAVAILKTSDKEGVLYQLWEEYQTDVDREESEKRGKAQAKKKGKSASFLTVSTMYRESLTSLMTMLHTTHPHFIRCIIPNEKKTSGLIDAPLVLNQLTCNGVLEGIRICRKGFPNRMMFADFRFRYAILAADEASDKDAAKASKAMLRKLSKNNQLNVDTFKVGTTKVFFRAGMLARLEELRDEALSAVILKFQCSLRHYLAQLEYKRRLDREDAYPIIQENIRAWIKLRSWPWYRLFSRLKPMLKGMKSNAEIEALEKKCKELEENHKREEEARKKYADELRAKIDQYEETKAAHERDRMLLDKRNKEIEELNRNLKAESESNYENAKKASELERLREKEKKEWDEKERRMQMEAENEANQHKTQTEKLKDQISTLQTDFEKVSAQRKAQEQMNAELVDEVASFKQKAERAEEQKKKLVEDLDSLDDKLAAEKRANNEHVKHNKKLEGQLKATQTQLTLALKEKHEFDVDCKRRESEIGELKLKAQGDANLISKLQAMLRKCISRIEELEEDLLEERKLRMKAERQFNELRSEYEVLQEQMAEASGQLTAEAHINKVRAEEVSNLRRDLQKRNLNHEAYISDLCNMQYATVNNLRNLSQQSATLESEALRILDHRRALSKQPLPRVYVEDPDSDSD | not soluble |
| MGSDKIHHHHHHMKKRFKYRTLEEMRWEAITLGIDLPLSGDFDVFRDLVDLGSKTIPNRFVDQPMEGNDAQLDGTPGPLTLRRYRKLAEGGAGVIWVEAIAVSREARGNDRQLMLTEETVNSFRSFVAEIKSVSLKTKNFEPYIVAQLTHPGRFGKNRKILFHDKFLDEKYGITEDFPLMSDEELDSLKEQYLRAAKFAKTAGFDAVDIKACHRYLLSELLAAHTREGKYGGSYENRTKLLKDIVRLVRKEVEIDITVRLNLSDFIPYPYGWGSTEEGTLDFTEPGRLLKELEELGVKIINVTASTPYLKPHINRPYDEMGKYNPPEHPIVGAMRLLNLAKLAKETLSKTLVVASGFTWFRQFAPYVAAGMLKNGWCDFVGFGRMTFAYPDYPKDILTKGELDPKKVCITCNKCAELKAAGESCGCVVRDGEVYLPIYRKMEESKKS | not soluble |
| MQTVGVHSIVQQLHRNSIQFTDGYEVKEDIGVGSYSVCKRCIHKATNMEFAVKIIDKSKRDPTEEIEILLRYGQHPNIITLKDVYDDGKYVYVVTELMKGGELLDKILRQKFFSEREASAVLFTITKTVEYLHAQGVVHRDLKPSNILYVDESGNPESIRICDFGFAKQLRAENGLLMTPCYTANFVAPEVLERQGYDAACDIWSLGVLLYTMLTGYTPFANGPDDTPEEILARIGSGKFSLSGGYWNSVSDTAKDLVSKMLHVDPHQRLTAALVLRHPWIVHWDQLPQYQLNRQDAPHLVKGAMAATYSALNRNQSPVLEPVGRSTLAQRRGIKKITSTAL | soluble |
